Experimental data from paper PMC12784932, “Keratin 15 promotes a progenitor cell state in basal keratinocytes of skin epidermis” (The Journal of Cell Biology, 2026).

Target: T1, EGFP-K14 WT (human keratin 14) (human, UniProt P02533 1-472)
T1 construct: keratin 14 (K14), human; codon-optimized KRT14 cDNA synthesized by Twist Biosciences; Co-expressed with untagged human K5, its type II copolymerization partner; also called WT K14; source: HeLa, transfected (nucleofection) together with untagged K5, in lysate (detergent-soluble pool)
T1 sequence (looked up): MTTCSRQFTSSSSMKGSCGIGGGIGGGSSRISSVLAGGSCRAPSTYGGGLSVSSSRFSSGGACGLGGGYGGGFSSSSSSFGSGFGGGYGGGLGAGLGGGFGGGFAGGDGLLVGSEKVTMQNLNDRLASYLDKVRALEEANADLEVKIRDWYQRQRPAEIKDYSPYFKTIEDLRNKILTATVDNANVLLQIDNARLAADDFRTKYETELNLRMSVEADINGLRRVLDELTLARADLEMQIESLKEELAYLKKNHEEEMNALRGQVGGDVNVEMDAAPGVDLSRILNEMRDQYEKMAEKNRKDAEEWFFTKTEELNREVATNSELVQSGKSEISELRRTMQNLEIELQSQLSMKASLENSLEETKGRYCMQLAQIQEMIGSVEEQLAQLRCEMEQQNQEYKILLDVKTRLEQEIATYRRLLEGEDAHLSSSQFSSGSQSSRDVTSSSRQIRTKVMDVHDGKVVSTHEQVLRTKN
Experiment: co-IP; GFP-Trap Magnetic Agarose (25 μl beads) on 600 μg lysate of HeLa cells cotransfected with untagged K5 and the EGFP-tagged keratin; lysis in 10 mM Tris/Cl pH 7.5, 150 mM NaCl, 0.5 mM EDTA, 0.5% Nonidet P-40 Substitute (detergent-soluble pool); 4°C, 1 h; western blot for endogenous 14-3-3σ; 14-3-3σ signal normalized to GFP
Details: partners not purified

B1: 14-3-3σ (stratifin) (natural protein, human (endogenous in HeLa), UniProt P31947 1-248, looked up)
chain: MERASLIQKAKLAEQAERYEDMAAFMKGAVEKGEELSCEERNLLSVAYKNVVGGQRAAWRVLSSIEQKSNEEGSEEKGPEVREYREKVETELQGVCDTVLGLLDSHLIKEAGDAESRVFYLKMKGDYYRYLAEVATGDDKKRIIDSARSAYQEAMDISKKEMPPTNPIRLGLALNFSVFHYEIANSPEEAISLAKTTFDEAMADLHTLSEDSYKDSTLIMQLLRDNLTLWTADNAGEEGGEAPQEPQS
notes: 14-3-3σ / stratifin, endogenous in HeLa cells; also called stratifin/14-3-3σ; endogenous 14-3-3σ; source: endogenous, HeLa lysate; endogenous, fixed HeLa cells
fold 14-3-3σ in the immunoprecipitate (normalized to GFP) against the EGFP-K15 WT immunoprecipitate: > 2 fold
